Assay results reported in publication PMC9297866.

What was measured:
purified protein [1] = substrate: C=C(C)CCO[P@@](=O)(O)OP(=O)(O)O; experiment: purified protein; settings: regular coupling; two-substrate reaction with DMAPP
purified protein [2] = substrate: CC(C)=CCOP(=O)(O)OP(=O)(O)O; experiment: purified protein; settings: regular coupling; two-substrate reaction with IPP

B1: neryl diphosphate synthase from Solanum lycopersicum (SlNPPS) (Solanum lycopersicum; N88H) (protein)
chain: SLNLQTEKLCYEDNDNDLDEELMPKHIALIMDGHRRWAKDKGLEVYEGHKHIIPKLKEICDISSKLGIQIITAFAFSTENWKRSKEEVDFLLQMFEEIYDEFSRSGVRVSIIGCKSDLPMTLQKCIALTEETTKGNKGLHLVIALNYGGYYDILQATKSIVNKAMNGLLDVEDINKNLFDQELESKCPNPDLLIRTGGEQRVSNFLLWQLAYTEFYFTNTLFPDFGEEDLKEAIMNFQQRHRRFGGHTY
For B1, the Km (purified protein [1]) was 457 ± 91 µM, the kcat (purified protein [1]) was 87±15×10^-3 s^-1 and the Km (purified protein [2]) was 391 ± 96 µM. For the same protein, the kcat (purified protein [2]) was 87±15×10^-3 s^-1.
